Legend:
Assay in all cases: ELISA
Settings in all cases: both partners purified
[1] = biological target: recombinant full-length Pfs48/45 (Plasmodium falciparum 3D7, UniProt Q8I6T1)
Pfs48/45 D1-2 = Pfs48/45 D1-2 (Plasmodium falciparum 3D7, UniProt Q8I6T1)
Pfs48/45 D2-3 = Pfs48/45 D2-3 (Plasmodium falciparum 3D7, UniProt Q8I6T1)

Measured: binding result

Pfs48/45 D1-2, sequence (Q8I6T1 28-289): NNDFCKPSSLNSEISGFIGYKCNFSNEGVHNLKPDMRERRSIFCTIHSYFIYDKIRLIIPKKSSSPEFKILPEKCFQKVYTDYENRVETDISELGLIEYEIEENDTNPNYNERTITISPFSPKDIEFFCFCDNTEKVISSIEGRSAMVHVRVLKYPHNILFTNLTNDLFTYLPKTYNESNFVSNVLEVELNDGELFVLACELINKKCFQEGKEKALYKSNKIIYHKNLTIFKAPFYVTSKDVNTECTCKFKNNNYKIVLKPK
Pfs48/45 D2-3, sequence (Q8I6T1 184-428): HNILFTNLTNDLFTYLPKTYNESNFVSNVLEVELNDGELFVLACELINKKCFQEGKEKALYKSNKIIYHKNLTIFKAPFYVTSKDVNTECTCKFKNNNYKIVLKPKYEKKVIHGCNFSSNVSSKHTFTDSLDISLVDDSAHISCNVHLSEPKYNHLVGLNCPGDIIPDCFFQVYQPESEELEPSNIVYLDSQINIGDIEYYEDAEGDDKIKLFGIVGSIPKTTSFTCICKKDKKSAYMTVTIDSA
recombinant full-length Pfs48/45, sequence (Q8I6T1 28-428): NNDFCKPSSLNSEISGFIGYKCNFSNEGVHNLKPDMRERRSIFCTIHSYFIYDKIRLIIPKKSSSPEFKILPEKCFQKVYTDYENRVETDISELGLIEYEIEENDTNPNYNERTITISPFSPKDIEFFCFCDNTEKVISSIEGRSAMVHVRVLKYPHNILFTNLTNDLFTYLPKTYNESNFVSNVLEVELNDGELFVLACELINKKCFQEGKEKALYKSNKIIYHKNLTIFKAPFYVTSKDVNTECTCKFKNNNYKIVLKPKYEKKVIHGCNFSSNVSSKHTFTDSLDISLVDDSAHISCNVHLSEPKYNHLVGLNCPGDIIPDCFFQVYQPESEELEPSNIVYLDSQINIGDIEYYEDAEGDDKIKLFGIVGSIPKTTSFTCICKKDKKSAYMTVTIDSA

B1: RUPA-91 (antibody, V domains shown)
VH: QVQLVQSGAEVKKIGASVKVSCKASGYTFTSHDIIWVRQAAGQGLEWMGWMNPNTGKKGYVEKFQGRVTLTRNMSTGTAYMELSSLRSDDTAVYYCARGVGTYHGSEGWLDPWGQGTLITVSS
VL: QSVLTQPPSASETPGQRVTISCSGSSSNVGSNSVNWYQQVPGTAPKLLIYNTNQRPSGVPARFSGSKSGTSASLAISGLHSEDEADYYCATWDGSLKKGVFGGGTKVTVL
notes: human IgG1; source: recombinant human IgG1, 293T (Protein A purified) or GenScript
binds: [1] | Pfs48/45 D1-2 | Pfs48/45 D2-3

B2: RUPA-151 (antibody, V domains shown)
VH: QVQLVQSGAEVKKTGASVKVSCKASGYTFTSHDIIWVRQAAGQGLEWMGWLNPNTGKKGYVEKFQGRVMLTRNMSTGTAYMELSSLRSDDSAIYYCARGVGTYHGSEGWLDPWGQGTLVTVSS
VL: QSVLTQPPSASETPGQGVTISCSGSSSNVGSNAVNWYQQLPGRAPKLLMYNTNQRPSGVPDRFSGSKSGTSASLAISGLRSADEADYYCAAWDDSLKRGVFGGGTKLTVL
notes: as for B1
binds: [1] | Pfs48/45 D1-2 | Pfs48/45 D2-3

B3: RUPA-108 (antibody, V domains shown)
VH: EVVLVESGGGLIQPGGSLRLSCAASGFTVSSSYMSWVRQAPGKGLEWVSVIYSGAGGGSIYYADSVKGRFTISRDNLKNTLYLQMNSLRVEDAAVYYCVRDSRGWGYFDDWGQGTLVTVSS
VL: EIILTQSPGTLSLSPGERATLSCRASQSIRTNYLAWYQRKPGQTPRLLIYGASSRATGIPDRFSGSGSGTDFTLTISRLEPEDFAEYFCQQYQNSPWTFGQGTIVEIK
notes: as for B1
binds: [1] | Pfs48/45 D1-2 | Pfs48/45 D2-3

B4: RUPA-143 (antibody, V domains shown)
VH: QVQLVQSGAEVKKPGASVKVSCKASASTIANFAVSWVRQAPGQGLEWMGWISVYNVKTGDVKYAPKFQGRVTLTIDTATSTASMELRSLRFDDTAVYYCARANWYDNVWQEYFYGMDVWGQGTTVTVSS
VL: DIQMTQSPLTLSASVGDRVTITCRASQSVSRFLAWYQQKPGKAPKLLMYKVSNLESGVPSRFSGSGFGTQFTLTISSLQPDDFATYYCQHYDAYPWTFGQGTKVEIK
notes: as for B1
binds: [1] | Pfs48/45 D1-2 | Pfs48/45 D2-3

B5: RUPA-90 (antibody, V domains shown)
VH: EVQLVESGGGLVQPGGSLRLSCAASGFMFSSYWMTWVRQAPGKGLEWVANIKEDGSEKYYVDSVKGRFTISRDNAENSLYLHMNSLRAADTAVYYCAREGDVFVAPSAVRKGGVYGMDVWGQGTTVTVSS
VL: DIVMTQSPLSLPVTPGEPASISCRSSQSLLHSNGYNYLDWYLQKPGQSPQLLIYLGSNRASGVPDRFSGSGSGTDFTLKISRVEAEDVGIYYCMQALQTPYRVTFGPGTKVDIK
notes: as for B1
binds: [1] | Pfs48/45 D1-2 | Pfs48/45 D2-3

B6: RUPA-88 (antibody, V domains shown)
VH: QVHLVQSGAEVKKPGASVKVSCKASGYNFLYHDITWVRQATGQGLEWLGWMNPNTGDTGYAQNFQGRVTMTRDMSRSTAYLELGSLRSEDTAVYYCARGVGSYHGSGGWLDPWGPGTLVIVSS
VL: QSVLTQPPSVSETPGQRVTISCSGSSSNIGLNTVNWYQQLPGTAPKLLIHNDNQRPSGVPDRFSGSKSGTSASLAISGLHSEDEADYYCATWDDSLKRRVFGGGTKLTVL
notes: as for B1
binds: [1] | Pfs48/45 D1-2 | Pfs48/45 D2-3

B7: RUPA-113 (antibody, V domains shown)
VH: QVQLVQSGAELKKPGASVKVSCKASGYTFTSHDITWVRQAPGQGLEWMGWMNPNTGDRGYARNFQGRLTLTRDMSISTAFMVLSSLRPEDTAVYYCTRGVGTYHGAGGWFDPWGQGTLVSVSS
VL: QSVLTQPPSASETPGQRVTISCSGSSSNIGSNIVSWYQQLPGTAPKLLIYNNNQRPSGVPDRFSGSQSGTSASLAISGLQSEDEADYYCATWDDSLERGVFGGGTKLTVL
notes: as for B1
binds: [1] | Pfs48/45 D1-2 | Pfs48/45 D2-3

B8: RUPA-99 (antibody, V domains shown)
VH: QVHLVQSGAEVKKPGASVKVSCKASGYNFLYHDITWVRQATGQGLEWLGWMNPNTGDTGYAQNFQGRVTMTRDMSRSTAYMELDSLRSEDTAVYYCARGVGSYHGSGGWLDPWGPGTLVIVSS
VL: QSVLTQPPSVSETPGQRVTISCSGSSSNIGLNTVNWYQQLPGTAPNLLIHNDNQRPSGVPDRFSGSKSGTSASLAISGLHSEDEADYYCATWDDSLKRRVFGGGTKLTVL
notes: as for B1
binds: [1] | Pfs48/45 D1-2 | Pfs48/45 D2-3

B9: RUPA-144 (antibody, V domains shown)
VH: QVQLVQSGAEVKKTGASVKVSCKASGYTFTSHDIIWVRQAAGQGLEWMGWMNPNTGKKGYVQKFQGRVMLTRNMSTGTAYMELSSLRSDDSAVYYCARGVGTYYGSEGWLDPWGQGTLVTVSS
VL: QSVLTQPPSASETPGQRVTISCSGSSSNVGSNTVNWYQQLPGTAPKLLMYNTNQRPSGVPDRFSGSKSGTSASLAISGLRSDDEADYYCATWDDSLKRGVFGGGTKLTVL
notes: as for B1
binds: [1] | Pfs48/45 D1-2 | Pfs48/45 D2-3

B10: RUPA-149 (antibody, V domains shown)
VH: EVQLVESGGGVVQPGGSLRLSCAASGFTFSNFGMHWVRQAPGKGLEWVAKISYDGSNKYYADFVKGRFTISRDKATNTVHLQMNSLSAEDRGIYYCAKDKVFGVVANHHQYGLDVWGQGTTVTVSS
VL: DIQMTQSPASLSASVGDRVTITCRASQNIHLYLHWYQQKPGKAPELLIFTTNTLHRGVPSRFRGSGSGTEFALTISDLQPEDFATYYCQQSYTTPHFTFGQGTKLEIK
notes: as for B1
binds: [1] | Pfs48/45 D1-2 | Pfs48/45 D2-3

B11: RUPA-111 (antibody, V domains shown)
VH: EVQLVESGGGLVQPGGSLRLSCVVSGFTFSRYSMYWVRQAPGKGPEWVSYIDSTGTTIYYADSVKGRFTISRDNAKSSLSLQMSSLRDDDRGVYYCARDGRKDSGSFLDHWGQGTLVIVSS
VL: DIQMTQSPSTLSASVGDRVTITCRASQSISEWLAWYQQKPGKAPRLLIYQASSLQSGVPSRFSGSGSGTEFTLTISSLQSDDFATYYCQQFDTYWTFGQGTKVEVR
notes: as for B1
binds: [1] | Pfs48/45 D1-2 | Pfs48/45 D2-3

B12: RUPA-104 (antibody, V domains shown)
VH: QVQLVQSGAEVKKPGASVKISCKTSGYTFTNYDINWVRQATGRGLEWMGWINPNTGKTGFAQKFQGRVTMTRSTSISTAYMELSSLRSEDTAVYYCARGVTTPDYFDSWGQGTLVTVSS
VL: DIQMTQSPSSVSASVGDRVSITCRASQDISGWLAWYQQKPGKAPKLLIYAASTLRTGVPSRFSGSGSGTDFTLTISSLQPEDFATYYCLQANSLPVTFGQGTRLEIT
notes: as for B1
binds: [1] | Pfs48/45 D1-2 | Pfs48/45 D2-3

B13: RUPA-150 (antibody, V domains shown)
VH: QVQLQQWGAGLLKPSETLSLTCLVNGGSFSDYYWSWIRQPPGRGLEWIGDVNHSGTTNHRPSLQSRVTLSLDMSKNQFSLKLTSVTAADTAVYFCARRSSGYYRGSRYTGWFDPWGQGTLVTVSS
VL: EIVMTQSPATLSVSPGERATLSCRASQSVSSNLAWYQQKPGQTPRLLIYGSSTRATGIPARFSGSGSGTEFALTISSLQSEDFAVYYCQQYNNWPPPWTFGQGTKVEIK
notes: as for B1
binds: [1] | Pfs48/45 D1-2 | Pfs48/45 D2-3

B14: RUPA-153 (antibody, V domains shown)
VH: QVQLQESGPGLVKPSQTLSLTCTVSGSSVSSGGYYWSWIRQHPGKGLEWIGYLYYSGNTGNTFYNPSLKSRVTISADPSKNQFSLELSSVTAADTAMYYCARAVGVGRYFGYFPSWGLGTLVTVSS
VL: EIVMTQSPATLSVSPGERATLSCRASQSVSSNLAWYQQKPGQTPRLLIYGSSTRATGIPARFSGSGSGTEFALTISSLQSEDFAVYYCQQYNNWPPPWTFGQGTKVEIK
notes: as for B1
binds: [1] | Pfs48/45 D1-2 | Pfs48/45 D2-3

B15: RUPA-105 (antibody, V domains shown)
VH: QVQLVQSGAEVKKPGASVKVSCTASGYNFLTHDISWVRQATGQGLEWMGWMNPNTGKKGYVQKFQGRVTMDRDMSKSTGYMELRSLTSEDTAVYYCVRGVGSYYGSGGWLDPWGQGTLVIVSS
VL: QSVLTQPPSASETPGQKVTISCSGSSSNIGSDTVSWYVQVPGTAPKLLIYNDNQRPSGVPDRFSGSKSGTSASLAISGLQSEDEADYYCATWDASLKRRVFGGGTTLTVL
notes: as for B1
binds: [1] | Pfs48/45 D1-2 | Pfs48/45 D2-3

B16: RUPA-147 (antibody, V domains shown)
VH: QVQLVQSGAEVKKPGASVKVSCTASGYNFLTHDISWVRQATGQGLEWMGWMNPNTGKKGYVQKFQGRVTMDRDMSKSTAYMELRSLTSEDTAVYYCVRGVGSYYGSGGWFDPWGQGTLVTVSS
VL: QSVLTQPPSASETPGQKVTISCSGSSSNIGSDTVSWYVQLPGTAPKLLIYNDNQRPSRVPDRFSGSKSGTSASLAISGLQSEDEADYYCATWDASLKRRVFGGGTTLTVL
notes: as for B1
binds: [1] | Pfs48/45 D1-2 | Pfs48/45 D2-3

B17: RUPA-148 (antibody, V domains shown)
VH: QVQLVQSGAEVKKPGASVKVSCTASGYNFLTHDISWVRQATGQGLEWMGWMNPNTGKKGYVQKFQGRVTMDRDMSKSTAYMELRSLTSEDTAVYYCVRGVGSYYGSGGWFDPWGQGTLVTVSS
VL: QSVLTQPPSASETPGQKVTISCSGSSSNIGSDTVSWYVQLPGTAPKLLIYNDNQRPPGVPDRFSGSKSGTSASLAISGLQSEDEADYYCATWDASLKRRVFGGGTTLTVL
notes: as for B1
binds: [1] | Pfs48/45 D1-2 | Pfs48/45 D2-3

B18: RUPA-92 (antibody, V domains shown)
VH: QVQLVQSGAEVKKPGASVKVSCKASGYTFTSHDIIWVRQATGQGLEWMGWMNPNTGDKGYAQKFQGRVTMTRSMSISTAYMELRSLRSEDTAVYYCARGVGTYRGSGGWFDPWGPGTLITVSS
VL: QSALTQPRSVSGSPGQSVTISCTGTSGDVGGFNYVSWYQQHPGKTPRLMLYHVTKRPSGVPDRFSGSKSGNTASLTISGLQADDEADYYCCSYAGNYIEIFGGGTKLTVL
notes: as for B1
binds: [1] | Pfs48/45 D1-2 | Pfs48/45 D2-3

B19: RUPA-87 (antibody, V domains shown)
VH: QVQVVQSGAEVRKPGASVKVSCKTSGYTFIYYYIHWVRQAPGQGLEWLGWINPNSGGTKYAQQFQGRVTVTRDTSVSTAYMELNGLTSDDTAVYYCARVVAAEGYFDYWGQGTLLTVSS
VL: DIQMTQSPSSVSASVGDRVTITCRASQGISGWLAWYQQKPGKAPKLLIYAASTLQSGVPSRFSGSGSGTDFTLTISSLQPDDFATYFCQQANSFPLTFGGGTKISLK
notes: as for B1
binds: [1] | Pfs48/45 D1-2 | Pfs48/45 D2-3

— article PMC9942873 (Immunity, 2023)
